In the supplement of paper PMC10567573:

B1: SOAT1 (parent)
chain: KSAAMLAVFAVSAVVHEYALAVCL
B2: SEC22B (parent)
chain: FPKKLAFAYLEDLHSEFDEQHGKK
B3: FBXO3 (parent)
chain: GGFPIIRDQIFRYVHDPECVATTG

Variants of: B1
Test: protein stability index of a GFP-peptide fusion (GPS, HEK-293T) (PSI 1-6); higher = more stable
Details: c terminus: a fixed tail appended
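Also: lentivirally expressed fusions sorted by FACS into six bins by GFP to DsRed ratio, PSI derived from sequencing read proportions per bin multiplied by bin number.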

| Variant | protein stability index |
| --- | --- |
| V11N | 3.47 |
| V11A | 2.8 |
| V11C | 2.8 |
| V11F | 2.89 |
| V11P | 4.61 |
| V11Q | 3.03 |
| V11H | 1.4 |
| V11R | 2.94 |
| A4N | 2.2 |
| A4K | 2.98 |
| A4T | 3.43 |
| A4D | 2.45 |
| A4H | 3.89 |
| A4V | 3.08 |
| A4M | 2.94 |
| A4I | 1.5 |
| A4L | 1.85 |
| A4Y | 2.44 |
| A4W | 1.72 |

| Variant | protein stability index |
| --- | --- |
| A4G | 2.92 |
| A7Q | 2.59 |
| A7Y | 3.49 |
| A7W | 2.69 |
| A7G | 4.09 |
| A7D | 2.99 |
| A7I | 1.49 |
| A7P | 2.58 |
| A7R | 3.98 |
| A7L | 3.14 |
| A7M | 1.54 |
| A7T | 3.23 |
| A7V | 2.07 |
| A7H | 2.91 |
| S2M | 2.99 |
| S2C | 2.54 |
| S2T | 3.26 |
| S2I | 2.12 |
| S2Y | 3.58 |

| Variant | protein stability index |
| --- | --- |
| S2R | 2.91 |
| S2N | 2.09 |
| S2L | 2.66 |
| S2E | 3.57 |
| S2P | 2.97 |
| L6G | 2.94 |
| L6D | 2.74 |
| L6K | 2.46 |
| L6M | 4.28 |
| L6E | 2.25 |
| L6N | 3.55 |
| L6I | 3.09 |
| L6P | 3.78 |
| L6C | 3.42 |
| L6Q | 2.68 |
| L6H | 2.73 |
| L6R | 2.02 |
| L6F | 2.21 |

Variants of: B2
Test: as above
Details: c terminus: a fixed tail appended

| Variant | protein stability index |
| --- | --- |
| F1A | 4.36 |
| F1E | 5.41 |
| F1C | 4.01 |
| F1D | 4.93 |

Variants of: B3
Test: as above
Details: c terminus: a fixed tail appended

| Variant | protein stability index |
| --- | --- |
| V14S | 2.74 |
| V14Y | 2.9 |
| V14A | 2.12 |
| I6V | 1.61 |
| I6N | 2.34 |
| I6Y | 1.99 |
| I6R | 2.13 |
| I6D | 3.56 |
| T22Y | 1.88 |
| T22E | 2.28 |
| T22D | 2.25 |
| T22R | 2.56 |
| G24T | 2.49 |
| G24D | 2.22 |
| G24Q | 2.78 |
| G2L | 1.86 |
| G2K | 2.54 |
| G2C | 1.51 |
| G2Q | 1.25 |
| G2W | 2.87 |
| P4Y | 2.75 |
| P4H | 2.02 |

| Variant | protein stability index |
| --- | --- |
| P4N | 2.15 |
| P4C | 2.23 |
| C19H | 1.57 |
| C19W | 2.15 |
| C19R | 1.79 |
| V20T | 1.68 |
| V20G | 2.08 |
| V20L | 1.81 |
| V20E | 2.22 |
| V20C | 2.84 |
| V20I | 2.19 |
| T23A | 1.8 |
| T23H | 1.89 |
| A21R | 1.82 |
| A21F | 1.64 |
| A21E | 1.55 |
| A21T | 1.69 |
| A21D | 1.06 |
| A21Y | 2.49 |
| A21C | 1.39 |
| A21G | 2 |
| R12I | 2.63 |

| Variant | protein stability index |
| --- | --- |
| R12G | 3.12 |
| R12D | 3.21 |
| G1T | 2.74 |
| G1M | 1.64 |
| G1D | 2.65 |
| G1P | 2.51 |
| G1S | 2.01 |
| G1C | 1.21 |
| I5Y | 2.26 |
| I5N | 2.4 |
| I5E | 2.64 |
| F11R | 2.89 |
| F11H | 4.01 |
| F11Y | 2.76 |
| F11T | 3.35 |
| F3K | 2.87 |
| F3D | 3.2 |
| F3E | 2.9 |
| F3T | 3.17 |
| F3N | 2.78 |
| F3H | 2.21 |
| F3M | 2.1 |

| Variant | protein stability index |
| --- | --- |
| D16F | 1.4 |
| D16N | 1.8 |
| D16C | 1.94 |
| D16E | 2.56 |
| D16P | 2.47 |
| D16H | 1.46 |
| D16W | 2.72 |
| D8A | 2.14 |
| D8R | 3.49 |
| D8N | 1.54 |
| D8S | 1.61 |
| Q9R | 2.18 |
| Q9T | 1.58 |
| P17S | 2.93 |
| P17E | 2.34 |
| I10H | 3.27 |
| I10Y | 2.57 |
| I10E | 3.66 |
| H15P | 2.27 |
| H15T | 2.28 |
| H15R | 1.68 |
| H15L | 1.94 |

| Variant | protein stability index |
| --- | --- |
| R7D | 3.92 |
| R7E | 3.79 |
| R7I | 1.69 |
| R7G | 2.99 |
| R7K | 2.4 |
| E18F | 1.88 |
| E18G | 1.71 |
| E18N | 1.8 |
| E18W | 1.38 |
| E18C | 2.04 |
| E18R | 1.69 |
| E18M | 1.79 |
| E18V | 1.7 |
| Y13S | 3.62 |
| Y13K | 2.79 |
| Y13P | 3.84 |
| Y13A | 3.44 |
| Y13M | 2.88 |
| Y13G | 3.18 |
